Reference: US20260028422A1 (CONCEPT TO MEDICINE BIOTECH, published 2026)
Read-outs that look alike come from different tables or passages of the source.

How the values were obtained:
[1] = target: T1, Human MerTK-mouse Fc fusion protein (human, UniProt Q12866 21-499, limits assumed); test: FACS blocking: binding of human MerTK-mouse Fc to Jurkat cells overexpressing human Gas6, MFI (AF488)
T1 construct: also called hMerTK; Human MerTK-mouse Fe fusion protein
T1 sequence (looked up): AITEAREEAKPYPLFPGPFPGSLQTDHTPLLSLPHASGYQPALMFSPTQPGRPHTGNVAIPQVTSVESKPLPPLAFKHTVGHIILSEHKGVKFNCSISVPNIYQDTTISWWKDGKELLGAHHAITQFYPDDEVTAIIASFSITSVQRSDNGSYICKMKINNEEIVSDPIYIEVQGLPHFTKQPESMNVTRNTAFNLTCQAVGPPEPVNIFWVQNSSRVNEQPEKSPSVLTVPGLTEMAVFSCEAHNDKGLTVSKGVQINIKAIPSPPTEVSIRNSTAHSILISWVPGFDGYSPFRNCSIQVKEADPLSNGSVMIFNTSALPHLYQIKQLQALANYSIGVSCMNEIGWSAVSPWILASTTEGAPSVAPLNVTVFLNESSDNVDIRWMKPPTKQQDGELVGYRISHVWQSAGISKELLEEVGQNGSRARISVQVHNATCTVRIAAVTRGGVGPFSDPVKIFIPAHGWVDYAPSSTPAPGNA
Protocol: (§1) To evaluate the blocking effects of anti-hMerTK mAbs on hMerTK binding to its ligand hGas6, a receptor blocking assay was set-up. Briefly, Jurkat cells engineered to overexpress human Gas6 were added to the 96-well microplates at a density of 5×10⁴ cells per well. Human MerTK-mouse Fe fusion protein (50 μL/well, […]) and the MerTK chimeric antibodies with a 3-fold serial dilution starting from 120 nM at a volume of 50 μL were added to the 96-well plates and incubated at 4° C. for 30 mins. After washing with FACS buffer, the plates were incubated with diluted Alex Fluor 488 conjugated goat anti-mouse IgG antibody for 30 mins at 4′C. After washing, the plates were analyzed by QuantAnalyzer 16.

[2] = target: T1, Human MerTK-mouse Fc fusion protein; test: as above; remark: listed apart in the source
Protocol: as §1

[3] = target: T2, human MerTK expressed on cells (human, UniProt Q12866 21-999); test: FACS on SK-MEL-5 cells expressing human MerTK, geometric mean
T2 construct: whole, on cells; also called CHO-K1-hMerTK; CHO-K1-MerTK
T2 sequence (looked up): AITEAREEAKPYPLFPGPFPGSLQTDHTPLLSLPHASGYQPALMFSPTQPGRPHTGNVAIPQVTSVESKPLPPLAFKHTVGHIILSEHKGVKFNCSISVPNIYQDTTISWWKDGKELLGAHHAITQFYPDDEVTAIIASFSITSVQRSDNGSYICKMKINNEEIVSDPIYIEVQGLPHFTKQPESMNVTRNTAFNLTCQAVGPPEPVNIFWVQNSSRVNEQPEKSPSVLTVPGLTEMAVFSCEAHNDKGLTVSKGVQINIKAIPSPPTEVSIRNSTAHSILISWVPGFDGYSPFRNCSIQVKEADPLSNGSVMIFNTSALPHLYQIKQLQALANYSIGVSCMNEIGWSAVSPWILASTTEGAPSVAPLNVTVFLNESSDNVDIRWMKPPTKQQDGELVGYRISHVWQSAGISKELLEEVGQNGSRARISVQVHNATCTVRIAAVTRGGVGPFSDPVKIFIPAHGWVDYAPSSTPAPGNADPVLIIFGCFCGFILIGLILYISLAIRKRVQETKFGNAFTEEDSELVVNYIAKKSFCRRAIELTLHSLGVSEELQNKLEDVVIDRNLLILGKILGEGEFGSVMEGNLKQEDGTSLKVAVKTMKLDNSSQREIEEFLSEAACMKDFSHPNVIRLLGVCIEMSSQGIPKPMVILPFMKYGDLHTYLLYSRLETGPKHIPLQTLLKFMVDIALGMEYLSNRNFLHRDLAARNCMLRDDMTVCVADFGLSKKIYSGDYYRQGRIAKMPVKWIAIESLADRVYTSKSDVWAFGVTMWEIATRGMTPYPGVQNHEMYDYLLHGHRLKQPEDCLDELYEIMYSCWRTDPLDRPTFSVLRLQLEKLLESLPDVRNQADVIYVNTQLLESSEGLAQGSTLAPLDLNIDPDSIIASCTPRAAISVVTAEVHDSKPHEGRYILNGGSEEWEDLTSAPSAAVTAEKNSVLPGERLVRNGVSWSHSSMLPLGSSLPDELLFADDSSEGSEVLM
Protocol: To evaluate the binding properties on MerTK expressed on cells, the chimeric monoclonal antibodies were analyzed for their binding to human melanoma cell line SK-MEL-5 expressing MerTK by FACS analysis. Briefly, SK-MEL-5 cells were firstly incubated with 5-fold serially diluted chimeric mAbs starting at 20 nM at 4° C. for 30 mins. After washing by FACS buffer, the PE conjugated anti-human IgG secondary antibody was incubated with the cell-antibody complex in the wells at 4° C. for 30 mins to detect the antibodies those bound to the cells. The MFI of PE was evaluated by QuantAnalyzer 16.

human MerTK-his protein = target: T3, human MerTK-his protein (human, UniProt Q12866 21-505); test: SPR Biacore T200, antibody captured on Protein A chip
T3 construct: extracellular domain; also called hMerTK-His; human MerTK protein
T3 sequence (looked up): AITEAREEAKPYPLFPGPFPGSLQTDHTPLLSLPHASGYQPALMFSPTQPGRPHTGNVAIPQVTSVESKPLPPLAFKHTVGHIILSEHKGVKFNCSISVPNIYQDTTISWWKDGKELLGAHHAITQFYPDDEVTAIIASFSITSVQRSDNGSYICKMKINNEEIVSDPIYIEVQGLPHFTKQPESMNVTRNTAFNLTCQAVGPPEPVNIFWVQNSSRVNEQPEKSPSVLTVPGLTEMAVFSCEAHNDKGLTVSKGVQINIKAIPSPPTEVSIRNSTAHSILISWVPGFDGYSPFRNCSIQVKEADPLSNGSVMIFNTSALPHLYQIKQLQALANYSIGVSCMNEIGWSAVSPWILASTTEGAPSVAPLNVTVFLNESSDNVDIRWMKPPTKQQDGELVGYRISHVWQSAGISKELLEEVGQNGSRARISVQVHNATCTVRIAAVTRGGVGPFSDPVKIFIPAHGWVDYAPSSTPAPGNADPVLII
Protocol: The binding affinity of the MerTK chimeric antibodies to human MerTK-his protein was tested with Biacroe™ T200 using a capture method. Briefly, the antibodies were captured with a Pro-A chip. […] The antigen was allowed to dissociate for 420-800 s. Data analysis was carried out using Biacore™ T200 evaluation software.

B1: h13B4.v16 benchmark antibody (antibody, V domains shown)
VH: EVQLVESGEGLVQPGGSLRLSCAASGFSLSSYAMGWVRQAPGKGLEYVGIINSYGNTYYANWAKGRFTISRDNSKNTVYLQMGSLRAEDMAVYYCARDPGVSSNLWGRGTLVTVSS
VL: DIQMTQSPSTLSASVGDRVTITCQASQNIYSGLAWYQQKPGKAPKLLIYGASKLASGVPSRFSGSGSGTEFTLTISSLQPDDFATYYCQATYYSSNSVAFGGGTKVEIK
B1 showed an IC50 [1] of 856 pM, an IC50 [2] of 836 pM and an EC50 [3] of 92 pM. For the same binder, the Top [3] was 4520 Geometric Mean.

B2: 252C12B10 chimeric monoclonal antibody (antibody, V domains shown)
VH: QVQLQQPGTELVKPGASVKLSCKTSGYTFTSYWMHWMKQRPGQGLEWLGHINPSTGGSNYNEKFKSKATLTVDKSSNTAYMQLSSLTSEDSAVYYCARPRGFYGYSYWYFDVWGSGTTVTVSS
VL: DIQMTQTTSSLSASLGDRVTISCSASQDINNYLNWYQHKPDGTIKVLIYFTSSLHSGVPSRFSGSGSGTEYSLTISNLEPEDIATYYCQQYSKLPPTFGSGTKLEIK
B2 showed an IC50 [1] of 780 pM, an EC50 [3] of 43 pM and a Top [3] of 4460 Geometric Mean. For the same binder, the Kd (human MerTK-his protein) was 5330 pM, the koff (human MerTK-his protein) was 0.00103 s⁻¹ and the kon (human MerTK-his protein) was 193000 M⁻¹ s⁻¹.

B3: 252H9D5 chimeric monoclonal antibody (antibody, V domains shown)
VH: QVTLRESGPGILQPSQTLSLTCSFSGFSLNTFGMGVGWIRQSSGKGLKWLAHIWWDDDKFYNPALKSRLTISKDTSKNQVFLKIANVDTTDTATYYCARIEGGLPYYYDYWGQGTPLIVSS
VL: DIVMTQSQKIMSTSVGDRISVTCKASQIVGTNVVWYQQKPGQSPKALIYSTSYRYSGVPDRFTGSRSGTDFTLTISNVQSEDLANYFCQQYNSYPFTFGSGTKLEIK
In the case of B3, the IC50 [1] is reported as 824 pM, the EC50 [3] is reported as 53 pM and the Top [3] is reported as 4790 Geometric Mean. It also gave a Kd (human MerTK-his protein) of 9850 pM, a koff (human MerTK-his protein) of 0.00287 s⁻¹ and a kon (human MerTK-his protein) of 292000 M⁻¹ s⁻¹.
